Target: T1, N-terminal FLAG-tagged human CD74 (human, UniProt P04233 1-296)
T1 sequence (looked up): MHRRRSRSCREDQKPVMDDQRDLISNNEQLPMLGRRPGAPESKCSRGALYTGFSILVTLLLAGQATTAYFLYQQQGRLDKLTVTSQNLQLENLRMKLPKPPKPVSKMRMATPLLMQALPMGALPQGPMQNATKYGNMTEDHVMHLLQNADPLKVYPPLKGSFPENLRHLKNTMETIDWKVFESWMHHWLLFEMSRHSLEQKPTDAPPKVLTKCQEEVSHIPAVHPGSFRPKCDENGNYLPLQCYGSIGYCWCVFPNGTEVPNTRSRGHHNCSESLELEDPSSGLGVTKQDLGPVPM
Assay: cell-based or functional assay

- arrest of MonoMac6 cells on a monolayer of human aortic endothelial cells under flow, TIMP-1 at 200 and 400 ng/mL, optimal concentration 200 ng/mL: 2 fold
B1: recombinant human TIMP-1 (tissue inhibitor of metalloproteinases-1) (natural protein)
chain: not shown

Reference: publication PMC10378328, “Tissue Inhibitor of Metalloproteinases-1 Interacts with CD74 to Promote AKT Signaling, Monocyte Recruitment Responses, and Vascular Smooth Muscle Cell Proliferation” (Cells, 2023)
